In patent US20230190943A1, “ALGINIC ACID DERIVATIVE BONDED TO NONSTEROIDAL ANTI-INFLAMMATORY COMPOUND” (MOCHIDA PHARMACEUTICAL CO., LTD., priority 2018, published 2023):

Experiments:
[1] = system: Rat 1% Silver Nitrate-Induced Pain Model; experiment: Intra-articular administration in rat 1% silver nitrate-induced pain model, gait pain score (Example 24); format: in vivo; details: for average pain score: scale 0-3, 0.1 mL/kg into left hindlimb knee joint
Experimental: Rats (Crj: SD system (SPF), male, 6 weeks of age) were anesthetized, and a 1% silver nitrate solution was administered into the left hindlimb knee joint cavity at a dose of 50 µL/joint.
The gait state of the rats on the day after the model was created was evaluated by scoring. The rats were divided into groups based on the obtained scores, and under inhalation anesthesia with isoflurane, each test substance was administered at 0.1 mL/kg into the rat left hindlimb knee joint (n = 8).
The gait score was given once a day for 5 days from the day on which test substance was administrated. Note that, as the score on the first day, the score before administration (grouping) was used. Under the blind, the gait state of each group was visually observed using the following pain score table based on the gait state.
The results are shown by the average pain score on Table 16. • 0: Normal • 1: mild claudication with lifting the foot • 2: severe claudication with completely closing the toe • 3: walking on three legs

[2] = rabbit, in vivo
Experimental: For each test substance, 4 rabbits were used, the whole body was fixed with a towel under no anesthesia, the area around the left knee j oint was wiped with alcohol, and then 0.1 mL/kg of each of the above test substances was administered into the j oint cavity from the outside of the rabbit knee using a Terumo 1 mL syringe equipped with a 26 G injection needle (manufactured by Terumo).
Rabbits were exsanguinated and killed under combined anesthesia by intramuscular administration of ketamine hydrochloride and xylazine. The joint capsule was incised just below the patella to expose the knee joint cavity, and the inside of the joint cavity was washed with 2 mL of physiological saline using a catheter with a Surflo indwelling needle 20 G, and the synovial fluid mixed with physiological saline was collected. The amount of DF in the recovered synovial fluid was measured by the following procedure.
The synovial tissue was separated and collected from the knee joint after collecting the synovial fluid in (2) above. The collected synovial tissue was washed with physiological saline to remove the attached synovial fluid. After removing the patella, the synovial tissue was placed in a tube, and the tissue was cut into small pieces with scissors. […] The same extraction operation as in (2) above was performed, and the amount of free diclofenac was measured using LC-MS/MS.

[3] = Release test of free diclofenac, felbinac, ketoprofen or naproxen in sodium phosphate buffer (Example 23); format: physicochemical
Experimental: (§1) (set temperature of air conditioner). After confirming that no gel was formed, this solution was dispensed. Immediately after the dissolution, the amount of free diclofenac present in each solution was measured by LC-MS/MS as an initial state (day 0 of storage). Also, the other dispensed solutions were incubated at 37° C. for 1, 3, and 7 days, and then the amount of free diclofenac was measured. […] The MS conditions are as follows. • Ionization mode: ESI-negative • Ion source temperature: 300 degrees • Capillary voltage: -4000 V

[4] = Release test of free diclofenac from conjugates in 20 mM sodium phosphate buffer, 37°C (Example 11); format: physicochemical; details: for Release Rate in Release Test at pH 5.3: pH 5.3, 37°C; for Release Rate in Release Test at pH 5.3 / Release Rate in Release Test at pH 7.0: free diclofenac; for Release Rate in Release Test at pH 7.0: pH 7.0, 37°C
Experimental: as §1

[5] = Day 1 (score before administration, grouping)
[6] = pH 5.3, day 1, free drug (diclofenac, felbinac, ketoprofen or naproxen)
[7] = pH 5.3, day 3, free drug (diclofenac, felbinac, ketoprofen or naproxen)
[8] = pH 5.3, day 7, free drug (diclofenac, felbinac, ketoprofen or naproxen)
[9] = pH 7.0, day 1, free drug (diclofenac, felbinac, ketoprofen or naproxen)
[10] = pH 7.0, day 3, free drug (diclofenac, felbinac, ketoprofen or naproxen)
[11] = pH 7.0, day 7, free drug (diclofenac, felbinac, ketoprofen or naproxen)

Molecule	average pain score [1, 5]	average pain score ([1]; Day 2)	average pain score ([1]; Day 3)	average pain score ([1]; Day 4)	average pain score ([1]; Day 5)	DF retained in the synovial tissue continuously until ... after administration [2] [days]	Release Rate in Release Test at pH 5.3 [3, 6] [%]	Release Rate in Release Test at pH 5.3 [3, 7] [%]	Release Rate in Release Test at pH 5.3 [3, 8] [%]	Release Rate in Release Test at pH 7.0 [3, 9] [%]	Release Rate in Release Test at pH 7.0 [3, 10] [%]	Release Rate in Release Test at pH 7.0 [3, 11] [%]	degree of pain relief (recovery from pain) ([1]; compared with diclofenac, alginic acid and diclofenac + alginic acid administration groups)	Release Rate in Release Test at pH 5.3 ([4]; Day 1, 0.1% w/w conjugate) [%]	Release Rate in Release Test at pH 5.3 ([4]; Day 3, 0.1% w/w conjugate) [%]	Release Rate in Release Test at pH 5.3 ([4]; Day 7, 0.1% w/w conjugate) [%]	Release behaviour in the release test at pH 7.0 (in words) [4]	Release Rate in Release Test at pH 7.0 ([4]; Day 1, 0.1% w/w conjugate) [%]	Release Rate in Release Test at pH 7.0 ([4]; Day 3, 0.1% w/w conjugate) [%]	Release Rate in Release Test at pH 7.0 ([4]; Day 7, 0.1% w/w conjugate) [%]
O=C([O-])Cc1ccccc1Nc1c(Cl)cccc1Cl.[Na+] [DF, Diclofenac Na, reference compound]	2.5	1.9	1.9	1.0	0.8															
Diclofenac-(2-Amino-1-(4-Hydroxypiperidin-1-Yl)Ethan-1-One)-Alginic Acid Derivative [Compound 63a]						≥ 84	0.0	0.2	0.2	0.3	0.8	2.2								
Diclofenac-(2-Amino-N-(2-Hydroxyethyl)Acetamide)-Alginic Acid Derivative [Compound 53b]	2.5	1.0	0.9	0.5	0.4	≥ 84	0.6	0.8	1.0	0.9	2.3	6.4	faster							
Diclofenac-(N-(Aminoethyl)-2-Hydroxyacetamide)-Alginic Acid Derivative [Compound 42]														0.0	0.5	3.3	stably released	1.8	10.2	21.0
Diclofenac-(2-Aminoethanol)-Alginic Acid Derivative [Compound 5d]														0.0	0.1	0.4	stably released	0.2	2.4	5.1
Diclofenac-(Serine Ethyl Ester)-Alginic Acid Derivative [Compound 19]														0.0	0.0	0.0		0.0	0.8	12.3
